Experimental data published in patent US9163227B2, “Anti-diabetic compounds” (PFIZER INC., priority 2011, dated 2015).

How the values were obtained:
[1] = Stability of linkers L1-L4 conjugated to FGF21 (LC-MS); type: physicochemical; conditions: linker conjugated to FGF21ΔH-A129C
Experimental: The following experiment was performed to investigate the chemical stability over 2 weeks of the four linkers upon conjugation to FGF21: each linker was conjugated to FGF21, placed at +4° C. storage conditions, and aliquots were removed and quenched by freezing at specific time points, and linker stability was monitored by LCMS analysis.
The four linkers were dissolved in DMSO from lyophilized stock material. […] L1 was reacted with protein for 30 mins; L2, L3 and L4 were reacted for 2 hrs. The conjugation reaction was quenched by removal of excess linkers through size-exclusion resin. Conjugated FGF21ΔH-A129C protein was placed at +4° C. for stability storage. […] Analysis of linker stability was performed by LC-MS analysis to determine the relative amount of unconjugated protein, protein+linker conjugation, and single and double hydrolysis events of the conjugated protein+linker.
Linker hydrolysis is the critical analytical variable in this experiment. Hydrolysis was monitored by observing the subsequent addition of H2O to the FGF21-linker complex. A single addition of H2O, +(1) H2O, likely indicates the hydrolysis of the active AZD group that is present on all 4 linkers. The addition of a second H2O molecule, +(2) H2O, is a strong indicator of hydrolysis (eg—chemical instability) in the linker. L1 is particularly susceptible because of the presence of a maleimide functional group.

[2] = Hydrolysis of the reactive group of [SEQ ID NO:10-L1] over time; type: physicochemical; conditions: 4° C., FGF21 RP chromatography
Experimental: Fine Tune of Conjugation Conditions for FGF21-Linker: The laboratory scale-ups were performed at different scales with a variety of optimized buffers and pHs. […] Since hydrolysis of reactive group of SEQ ID NO:10-L1 occurs over time (Table 27), post activation diafiltration of SEQ ID NO:10-L1 should be operated at between about 2 and about 10° C. The amount of SEQ ID NO:10-L1 after post activation diafiltration varied in different experiments, and the difference could contribute to the variation of the conjugation efficiency for h38C2-[SEQ ID NO:10-L1]1. About 100 mM Phosphate pH about 6.3 gave the least aggregates and highest h38C2 remaining for recycle purpose.
The above sample was further passed through the UFDF to remove excess linker and TCEP. The membrane was sanitized with 1N NaOH for 30 min, drained, and equilibrated with 100 mM MES, pH 7.0. Buffer 100 mM MES, pH 7.0 was used for diafilteration (7× diafilteration). Diafiltration was done at 4 g/L retentate concentration. Foaming and splashing may be avoided during UF/DF. Hydrolysis of the reactive group of [SEQ ID NO:10-L1] occurred over the diafiltration process. The hold time for post-activation DF pool should be minimized. UF may be operated at 2-10° C. using 10K Sartorius Hydrosart membrane. The combined species [SEQ ID NO:10-L1] confirmed by FGF21 RP was down from 73% to 64% after UF/DF.

[3] = +4° C. storage, LC-MS, of total measured protein, 0 hrs

CC1=CC(=O)N(CCC(=O)NCCOCCOCCC(=O)Nc2ccc(CCC(=O)N3CCC3=O)cc2)C1=O [Compound L2]
0 linker (unconjugated protein) [1, 3]: 22%
1 linker (protein+linker conjugation) ([1]; +4° C., 0 hrs): 45%
+(1) H2O (single hydrolysis) ([1]; +4° C., 0 hrs): 27%
+(2) H2O (double hydrolysis) ([1]; +4° C., 0 hrs): 6%
0 linker (unconjugated protein) ([1]; +4° C., 24 hrs): 23%
1 linker (protein+linker conjugation) ([1]; +4° C., 24 hrs): 43%
+(1) H2O (single hydrolysis) ([1]; +4° C., 24 hrs): 26%
+(2) H2O (double hydrolysis) ([1]; +4° C., 24 hrs): 8%
0 linker (unconjugated protein) ([1]; +4° C., 72 hrs): 24%
1 linker (protein+linker conjugation) ([1]; +4° C., 72 hrs): 37%
+(1) H2O (single hydrolysis) ([1]; +4° C., 72 hrs): 32%
+(2) H2O (double hydrolysis) ([1]; +4° C., 72 hrs): 8%
0 linker (unconjugated protein) ([1]; +4° C., 168 hrs): 24%
1 linker (protein+linker conjugation) ([1]; +4° C., 168 hrs): 40%
+(1) H2O (single hydrolysis) ([1]; +4° C., 168 hrs): 29%
+(2) H2O (double hydrolysis) ([1]; +4° C., 168 hrs): 7%
0 linker (unconjugated protein) ([1]; +4° C., 336 hrs): 26%
1 linker (protein+linker conjugation) ([1]; +4° C., 336 hrs): 38%
+(1) H2O (single hydrolysis) ([1]; +4° C., 336 hrs): 28%
+(2) H2O (double hydrolysis) ([1]; +4° C., 336 hrs (2 weeks)): 8%

CC1=CC(=O)N(CC2CCC(C(=O)NCCOCCOCCC(=O)Nc3ccc(CCC(=O)N4CCC4=O)cc3)CC2)C1=O (centres unmarked) [Compound L4]
0 linker (unconjugated protein) [1, 3]: 20%
1 linker (protein+linker conjugation) ([1]; +4° C., 0 hrs): 46%
+(1) H2O (single hydrolysis) ([1]; +4° C., 0 hrs): 28%
+(2) H2O (double hydrolysis) ([1]; +4° C., 0 hrs): 6%
0 linker (unconjugated protein) ([1]; +4° C., 24 hrs): 20%
1 linker (protein+linker conjugation) ([1]; +4° C., 24 hrs): 46%
+(1) H2O (single hydrolysis) ([1]; +4° C., 24 hrs): 27%
+(2) H2O (double hydrolysis) ([1]; +4° C., 24 hrs): 7%
0 linker (unconjugated protein) ([1]; +4° C., 72 hrs): 21%
1 linker (protein+linker conjugation) ([1]; +4° C., 72 hrs): 42%
+(1) H2O (single hydrolysis) ([1]; +4° C., 72 hrs): 30%
+(2) H2O (double hydrolysis) ([1]; +4° C., 72 hrs): 7%
0 linker (unconjugated protein) ([1]; +4° C., 168 hrs): 21%
1 linker (protein+linker conjugation) ([1]; +4° C., 168 hrs): 41%
+(1) H2O (single hydrolysis) ([1]; +4° C., 168 hrs): 32%
+(2) H2O (double hydrolysis) ([1]; +4° C., 168 hrs): 6%
0 linker (unconjugated protein) ([1]; +4° C., 336 hrs): 22%
1 linker (protein+linker conjugation) ([1]; +4° C., 336 hrs): 41%
+(1) H2O (single hydrolysis) ([1]; +4° C., 336 hrs): 31%
+(2) H2O (double hydrolysis) ([1]; +4° C., 336 hrs (2 weeks)): 6%

O=C(CCN1C(=O)C=CC1=O)NCCOCCOCCC(=O)Nc1ccc(CCC(=O)N2CCC2=O)cc1 [Compound L1, 3-(2,5-dioxo-2,5-dihydro-1H-pyrrol-1-yl)-N-(2-(2-(3-oxo-3-(4-(3-oxo-3-(2-oxoazetidin-1-yl)propyl)phenylamino)propoxy)ethoxy)ethyl)propanamide]
0 linker (unconjugated protein) [1, 3]: 13%
1 linker (protein+linker conjugation) ([1]; +4° C., 0 hrs): 49%
+(1) H2O (single hydrolysis) ([1]; +4° C., 0 hrs): 30%
+(2) H2O (double hydrolysis) ([1]; +4° C., 0 hrs): 8%
0 linker (unconjugated protein) ([1]; +4° C., 24 hrs): 14%
1 linker (protein+linker conjugation) ([1]; +4° C., 24 hrs): 41%
+(1) H2O (single hydrolysis) ([1]; +4° C., 24 hrs): 34%
+(2) H2O (double hydrolysis) ([1]; +4° C., 24 hrs): 11%
0 linker (unconjugated protein) ([1]; +4° C., 72 hrs): 14%
1 linker (protein+linker conjugation) ([1]; +4° C., 72 hrs): 40%
+(1) H2O (single hydrolysis) ([1]; +4° C., 72 hrs): 35%
+(2) H2O (double hydrolysis) ([1]; +4° C., 72 hrs): 11%
0 linker (unconjugated protein) ([1]; +4° C., 168 hrs): 10%
1 linker (protein+linker conjugation) ([1]; +4° C., 168 hrs): 33%
+(1) H2O (single hydrolysis) ([1]; +4° C., 168 hrs): 40%
+(2) H2O (double hydrolysis) ([1]; +4° C., 168 hrs): 18%
0 linker (unconjugated protein) ([1]; +4° C., 336 hrs): 12%
1 linker (protein+linker conjugation) ([1]; +4° C., 336 hrs): 28%
+(1) H2O (single hydrolysis) ([1]; +4° C., 336 hrs): 41%
+(2) H2O (double hydrolysis) ([1]; +4° C., 336 hrs (2 weeks)): 18%

CC1=CC(=O)N(CCOCCOCCC(=O)Nc2ccc(CCC(=O)N3CCC3=O)cc2)C1=O [Compound L3]
0 linker (unconjugated protein) [1, 3]: 19%
1 linker (protein+linker conjugation) ([1]; +4° C., 0 hrs): 45%
+(1) H2O (single hydrolysis) ([1]; +4° C., 0 hrs): 30%
+(2) H2O (double hydrolysis) ([1]; +4° C., 0 hrs): 6%
0 linker (unconjugated protein) ([1]; +4° C., 24 hrs): 18%
1 linker (protein+linker conjugation) ([1]; +4° C., 24 hrs): 47%
+(1) H2O (single hydrolysis) ([1]; +4° C., 24 hrs): 27%
+(2) H2O (double hydrolysis) ([1]; +4° C., 24 hrs): 8%
0 linker (unconjugated protein) ([1]; +4° C., 72 hrs): 19%
1 linker (protein+linker conjugation) ([1]; +4° C., 72 hrs): 43%
+(1) H2O (single hydrolysis) ([1]; +4° C., 72 hrs): 30%
+(2) H2O (double hydrolysis) ([1]; +4° C., 72 hrs): 8%
0 linker (unconjugated protein) ([1]; +4° C., 168 hrs): 19%
1 linker (protein+linker conjugation) ([1]; +4° C., 168 hrs): 43%
+(1) H2O (single hydrolysis) ([1]; +4° C., 168 hrs): 29%
+(2) H2O (double hydrolysis) ([1]; +4° C., 168 hrs): 8%
0 linker (unconjugated protein) ([1]; +4° C., 336 hrs): 20%
1 linker (protein+linker conjugation) ([1]; +4° C., 336 hrs): 43%
+(1) H2O (single hydrolysis) ([1]; +4° C., 336 hrs): 29%
+(2) H2O (double hydrolysis) ([1]; +4° C., 336 hrs (2 weeks)): 8%

B1: [SEQ ID NO: 10-L1] (protein, listed as Homo sapiens)
chain: PIPDSSPLLQFGGQVRQRYLYTDDAQQTEAHLEIREDGTVGGAADQSPESLLQLKALKPGVIQILGVKTSRFLCQRPDGALYGSLHFDPEACSFRELLLEDGYNVYQSEAHGLPLHLPGNKSPHRDPCPRGPARFLPLPGLPPALPEPPGILAPQPPDVGSSDPLSMVGPSQGRSPSYAS
modifications: L1 linker attached
% FGF21 ([2]; 0 hour): 13.4%
% FGF21 dimer ([2]; 0 hour): 1.8%
% Hydrolyzed reactive FGF21ΔH-A129C-L1 ([2]; 0 hour): 6.5%
% Other ([2]; 0 hour): 1.6%
% reactive FGF21ΔH-A129C-L1 ([2]; 0 hour): 76.7%
% FGF21 ([2]; 1 hour): 13.2%
% FGF21 dimer ([2]; 1 hour): 2.8%
% Hydrolyzed reactive FGF21ΔH-A129C-L1 ([2]; 1 hour): 8.8%
% Other ([2]; 1 hour): 1.6%
% reactive FGF21ΔH-A129C-L1 ([2]; 1 hour): 73.6%
% FGF21 ([2]; 2 hrs): 14.4%
% FGF21 dimer ([2]; 2 hrs): 4.0%
% Hydrolyzed reactive FGF21ΔH-A129C-L1 ([2]; 2 hrs): 10.6%
% Other ([2]; 2 hrs): 1.9%
% reactive FGF21ΔH-A129C-L1 ([2]; 2 hrs): 69.1%
% FGF21 ([2]; 3 hrs): 13.3%
% FGF21 dimer ([2]; 3 hrs): 4.1%
% Hydrolyzed reactive FGF21ΔH-A129C-L1 ([2]; 3 hrs): 13.6%
% Other ([2]; 3 hrs): 1.9%
% reactive FGF21ΔH-A129C-L1 ([2]; 3 hrs): 67.1%
% FGF21 ([2]; 4 hrs): 13.9%
% FGF21 dimer ([2]; 4 hrs): 4.5%
% Hydrolyzed reactive FGF21ΔH-A129C-L1 ([2]; 4 hrs): 14.9%
% Other ([2]; 4 hrs): 1.8%
% reactive FGF21ΔH-A129C-L1 ([2]; 4 hrs): 64.9%
% FGF21 ([2]; 5 hrs): 14.3%
% FGF21 dimer ([2]; 5 hrs): 5.0%
% Hydrolyzed reactive FGF21ΔH-A129C-L1 ([2]; 5 hrs): 16.9%
% Other ([2]; 5 hrs): 1.9%
% reactive FGF21ΔH-A129C-L1 ([2]; 5 hrs): 61.9%
% FGF21 ([2]; 6 hrs): 13.9%
% FGF21 dimer ([2]; 6 hrs): 5.2%
% Hydrolyzed reactive FGF21ΔH-A129C-L1 ([2]; 6 hrs): 18.8%
% Other ([2]; 6 hrs): 1.8%
% reactive FGF21ΔH-A129C-L1 ([2]; 6 hrs): 60.3%
% FGF21 ([2]; 8 hrs): 14.5%
% FGF21 dimer ([2]; 8 hrs): 5.7%
% Hydrolyzed reactive FGF21ΔH-A129C-L1 ([2]; 8 hrs): 22.3%
% Other ([2]; 8 hrs): 1.7%
% reactive FGF21ΔH-A129C-L1 ([2]; 8 hrs): 55.8%
% FGF21 ([2]; 10 hrs): 15.0%
% FGF21 dimer ([2]; 10 hrs): 5.9%
% Hydrolyzed reactive FGF21ΔH-A129C-L1 ([2]; 10 hrs): 25.0%
% Other ([2]; 10 hrs): 1.8%
% reactive FGF21ΔH-A129C-L1 ([2]; 10 hrs): 52.3%
